Laboratory results from the NTF2 design screens of Basanta et al. (2020).

Test: protease stability score; higher = more stable; yeast display proteolysis, trypsin and chymotrypsin;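 further: relative to predicted unfolded state with 0 unfolded-like and 1 meaning tenfold more protease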

DEEERMAHEVAEILLRSLHTGDWRRDMDLLDPHVRFDFNGVHLHGREEWLRHLHEFWRKFGVEFFDLHEDNISIQGDKAIMDGQIEFNGRRTKQKLEITVIDGRVKEVRVEIH
protease stability score: 0.59

DEEERQLEEFLELLVEALRTGDWHTLMRMLDPNVKVHIDGKDIHGREEHIRLHIEQWERLGYERIEFRVRIDEVHFINGVVEVDYTQIDQFDGQRLQLRVRIFLLKFDGRWSIDKVVFR
protease stability score: 2.46

DEEERQVLLLAKILIHLYYTGDEESFRKLLDPHVRIIWNGRDFVGRENWYELLHRVLRHWRIHHIDIHDFDVQGNKARFHTQIVVDVNGKHIRSHTEVIYVVVNGRVDEIEVIIR
protease stability score: 2.37

DEEERRDREWLHRMLHVHHTGDEEMFKRLADPHTLLRVDGKDVHGREEIAHFIRERGYRVEVHARHIEIINGRIDNETTVIVRINGRTIHEETHLHIRKINGKWILTHWHIE
protease stability score: 0.654

DEEERRLHEIAELVVHRLVTGDEDTLNKLFDPNTRFELIFNGQNFELHGREALMEWLQRRRNVREKHEVRRIEYQGDKLHVDGTLIIEYGDKRRESEVDLRIRVVNGRVHTIDLRLK
protease stability score: 1.48

DEEERRTREFTEHVLHAEETGDFDSFVELADPNVRMRIGDKEIHGMEMVAKWLVHMRIKHFNLHRIEIQGEKVHIDGEIKGRFNGRDTETKVIFHIVVIDGRLHSQIIQIH
protease stability score: 1.54

DEEERSAKDFSERVFEEDRTGDEERWERLADPNVRLDINGKEHHGRELVMKYRLEFLRRVKNMVIRLEHIEIRVFDGKLTLHIHGVINVDGKTIHFDLIIIVRKVDGRWRIDEVIIEIK
protease stability score: 1.4

DEEERSFELALRLLERTIKTGNEDDWRRMLDPHTKIIIGDKEFHGMEDAEKILREHIHRIDHFHDIHLHRIRVQGDKIHMDVRLDGRINGRRDILIARFTVVKVDGRWVIHQVESH
protease stability score: 1.22

DEEERVRDEIERLIEESLRTGDWRHLSELFDPNVRMEVGDKDIIGRERVHQAIHDFWKSFGADHRHLHDIEEINGVVIMHMRYRVGNKTVHFHVIMIKINGRWFLHSVHIHID
protease stability score: 1.11

DEEERYIIEMLRILAEAILTGDEDETHNQLDPDVRIEWNGVELHGRDELLRFMHHLRIDIKRVEFRSITKVDGRVHTDGLLDVTYFIDGRVFRRRTHTELIILKVDGRWTFHSIKID
protease stability score: 2.19

DEEESIERELSRRWLHWFITGDEERAKKLADPRARYHQGDKEIHGWDNLRKFLFEILEKIPNLRIIIRDSDVINGRIHYDTELHIDGVHIKTHLIIVIVDGRLKELHVEEH
protease stability score: 0.06

DEEESRIEKVNRRWLRAYATGDEDTLNHLIDPRVRMDIDGVDLHGREEFEEWLRRIDVIRTFELKFMHIQGEKVNNDVQFDTRIDGQNRSVRNKLIIEKVDGKWVVKTIHFI
protease stability score: 0.228

DEEHDIDRKIFEMIVDVFLTGDWKRWFDNADPDVKTEIRIGDKKIDLHGWEFFLRFLEEELRRFKNIQIMSTDVKLFNGKVDVNIEIRIGDKTQHYIYHIHTFNGVIKHVHVHSK
protease stability score: 1.28

DEEHEAIEQFLRIIIENARTGNEEFLYKYFDPHVRIHIDGQNMVGREEWVEWLRQIRHQVDSFHIKHIEVQGDKLILEGHLEIKLHINGQELHKHVEVRYEINKVNGRWLLRSVHIK
protease stability score: 1.74

DEEHEDAVRIWEEFLEAVITGDWDRLKTLLDPNVRLHQGDFEIHGREKIVKTIHEMRIHIHDHRFRDSHFINGRVKLHVESDKEIIYGNKKTRLTVHVTVIIHKVNGVWLVHSVHVE
protease stability score: 0.986

DEEHEDMDKYSKLLVEMLKTGDEHIFKILADPHVRIDINGREYHGWEDWVEVVRELRIHRLHFTHMEIQGDKLHLHLKSKFSFDGRVHEIEIRIHAKKVNGRWVIKEIRII
protease stability score: 2.29

DEEHEELKKMVQHSLQLLMTGDEETIYHLLDPHAKVIINGVEYHGMSLSAKIMIKMARDLGVERFEVHLEHSRWFDGRVDVHISRRVNGQTEEVHINSKKINGRWHLKSIIFN
protease stability score: 1.06

DEEHEETHRWVELFIRHHLTGDEDFIMKMLDPNTRWHIDGRTFHGMETVFDARKKERNKLGADHVRFTSFEIQGDFLHILGSIHIDGKELDEKIIIEVIDGRLNSILVTRR
protease stability score: 0.661

DEEHEEVERMWERFIKYYLTGNEELFDHLADPNVRLIIGDKIAIGREEVRKLWERRRREIRIRHMNFHSVRWYDGRIDLEVEVNLDVNGREIKTEQRIHIKVINGRVKDVEIRVE
protease stability score: 0.743

DEEHEEYHRMFRVVEHAYRTGDWKTLSDYMDPNAKQTVGNKEYHGREQVDESLKRLGIKVTDVEDSKEDHINGRLVVRLDQHLEVNGRRIKIHVLIIIIKINGRWIITENMYIFH
protease stability score: 0.141

DEEHEEYMDWAIIHLHDWLTGDEDHHNELADPNDRLELVIGDKRIERIGREEVTKQLHEFRKHMRVHRIEIKTRNVYNGKAHLHGIMHFRVGDKKYDVETHIVIVIINGVLKQVKIEIR
protease stability score: 0.773

DEEHEFLITMVKLVSTWFLTGDFETYIDLADPNTRQHVNGRYSVGREDAVKLEEEMLREIRIRDIRVKHIIRQGDKIELEFRFHMEVDGRVEDITVEVRIFLVNGRLHFLEIRFD
protease stability score: 0.743

DEEHEFMRKMSEEFVHIWLTGDEERLIKLLDPNAKLNIDGVEHHGWKEVHRYLKELKEELGVDHFHVRRITIRYIDGVAISIVHYESHINGRHHELEIHNVVNKIDGRWHLQSIHIHFH
protease stability score: 2.16

DEEHEHAKRAVKKTLTDYYTGDEDSISDLADPNVIQDVGDKEYHGREEFLRSMHKIIKWLGVDHIEVHRVHLINGRVFSRLRLEVDGREVELIIIILKINGRWHWHSMRIIHR
protease stability score: 1.03

DEEHEHLHKWLDMLLYAHKTGDPEVILKNADPHVRSEVDGREVHGMEKFARDLYEMRIHRIHIKDVKTIGNKLDVDGRLDGEFNGKRVDSDVHLHLVVIDGRLHSLHIKHR
protease stability score: 0.558

DEEHEHLKELARLILKWWYTGDEQHMLELADPNVRSHVNGVHLVGREEMMKVWVEVLEFLGADHVEDKRSSIQGDKTILHTSHHVNGKEIEVDVDIRIVDGKDHTLEFRIK
protease stability score: 1.44

DEEHEHQHEFAQIIMEMWKTGDWKTMFKLADPNARTIFEGRRLHGRELIWEFLFRLLKKLGVDHEKDRHSHNIGDKIHIHGEEEIGDKKVEVHIHIVIFNGRVKELEIRRREL
protease stability score: 0.511

DEEHEIIRKMFEIVKDMFKTGDEEITERLLDPNARIDIDGRDIVGRESVLWLFSQFKNLRHRDDRIDYQGNFVIVRGKLDINGRRVEIEIVAAKVDGRWILHSIKMQ
protease stability score: 1.43

DEEHEINRRIAEWWLHSVKTGDEESIENNADPNTRIVVNGVHFHGMEESHKWLHEFLRRFKNATLEIHSMEVINGVTHIHGTLVQGDKRIRVHIHVHVINGRIHTISHEHR
protease stability score: 1.27

DEEHEIVELIMRIFLHAVLTGDWELIEKLADPNVRIIIRINGQEIHFHGREHLRHRFEHLRIDRMEIHDYKNVGDWLDIDGRENGNFNGRKHETRVHIHIRVINGKLHELRVTYR
protease stability score: 1.68

DEEHEKLYQDLEYWVKMVRTGDEDSHLEYADPDVRLDVNGQQFIGREEFTRFFRTLSRELGLDNINFRIKDIRNVGDKIDIDGHREINGRRVRIILVAWKFNGRWYLHEERIR
protease stability score: 1.39

DEEHELLEHWLRLFEEAFSTGDWRIMARLIDPNARLEIGEKDHHGREELIKFMLRVDHIDDFRLHEKDRTEIDGRLRMNGNNEVQGTVNGQKRNITIDIHIVVVKVDGRWFVERIRIR
protease stability score: 1.3

DEEHELTRKVLTEMWEIFMTGDWKRWHELLDPHVRFVYVQGEFEDVHHGREEVKRLFDKLLKDLGFKHSELTDTRLVGNKAVIDGTIHVGDKIYDFHLNVLVVNGKVKTIEVEIREK
protease stability score: 1.94

DEEHEMAKRASEKFVKDWVTGNFEVLRENLDPHVRLDINGVKVHGRELVWHYIAKRLRFMGVDHTEMEVHHREVQGNKLITDMEERIHVGDYHEERRVVLISQKINGKWLVKSIHEE
protease stability score: 1.56

DEEHEMIQTHLRLFHEALLTGDEEELHRLLDPNVRVDIGDKHLHGREVVIHWMRQIRVKHLDLDLDHERSVNGRVDIKGTLRSDVIINGQRHKTSHTLHFHATKINGRWFIKEYIVD
protease stability score: 2.06

DEEHEQLERLARDYMHSTETGDEESIRRFFDPHTRYDIDGKESHGWEMIKHWMEEWRIDSVTIHSIHRINGVAHIDVTVHGEIGDKQTTFRVIIDLVIVNGKVHEIRIIFE
protease stability score: -0.086

DEEHEVLRRMVERIREMEKTGDWERYATMADPNTRVDVNGVELHGMENVAFWFWLHLYRHGIEIKDIRVRDIKVQGEKYQEDGELYGHINGQTTILEVHLEITFVNGRIHSEKISIK
protease stability score: 1.25

DEEHEWAQLVIQLFFEALHTGDEKTLHELMDPEVKVNVDGRELHGREEVMEWFEELIRQYKNAKIHLHIHRVEYVGNKVIIRGELHFRYGDKEERIDRILHVLKVDGRWLIREIEHR
protease stability score: 1.51

DEEHEWAQRIIEYLSKNEKTGDEDSARELADPNMRFEIDGVEIVGMETWVRRFLELRVEDLTMDVEHIHVQGNFVHIQTRLELHGHINGRRTRYTTTMRLFVLKINGKWIITHVKYE
protease stability score: 1.45

DEEHEWMHIMMELLLRAFETGDPDLFEHLADPNTRLQIGDKTIHGRTKVSTWLHREIRRADHLEIRLREYDYQGDKLEMKTELIIQQGDKQVQLETRVIIIKINGRWFLESIEIN
protease stability score: 1.23

DEEHHDARRIIEEFITLLKTGDEENLDEYLDPNVRIEFNGRDLHGMEWFLHFLREIRFRDDDHKRIQVKVINGQVHILIKMHVDGVWDGRRKISDVHLHFTVVKVDGRWRFTSIHVHIE
protease stability score: 1.35

DEEHHDLQEFFERLKRHWETGDWKEITKNFDPNVKERYGDFEVHGREEAIRKAKEMRYNDMDIRHRRVIDGRAYLHTEMDGNFDGRERRFEVEMIITKIDGVWRIKHVTFK
protease stability score: 1.06

DEEHHELHKMFEEMINKWITGDWEYIVKLLDPHVKLEVGDKRHHGWKQYVLFLEEFMREFKNATIKIHDVTHVDGVVIINMKFHFNGKDIDTTLYLHIVNGRLHDERIEVE
protease stability score: 1.74

DEEHHLAKELVRLLQEALSTGDEDEVKRLIDPDYRLIIGEFIFHGREDLERWLHHARVSVKDSHLRHVKVQGDKVEINGERNLIVIIDGKKIERKHRLHLIIIKVDGRWFMESEKYD
protease stability score: 1.01

DEEHHNAREMLKLFLDFMQTGDWESHLEMADPNVKVIIDGQEFIGRESSERLIREIRIKRHHLEEERIEVQGDKAIVRLRGRRDGNVNGVETETEVHIRIHFKKIDGRWVMTSVHIEVV
protease stability score: 1.75

DEEHKELRRAWEQLIHDIKTGDEESFKRLADPDVQVRVGDKVEHGREATERWLRQVDHIKHFEEKRIHIYDGRVELKGRVTGVINGRELNTEIDFEIVYIDGKLHRIRIHFR
protease stability score: 1.09

DEEHKEREDVAREIITLLLTGDEEIWLSMMDPHTRININGKYAIGRENIEEIIKDLLRRIPNIRIIMQDMKIQGDKVTIHGIHNVNGREHEWRVHIISVNGRIKSIEVRIH
protease stability score: 1.47

DEEHKETEDIAKYFWERFLTGDWKTFKEFADPHVKIDVDGVEHIGREEASKLMRDWDRRFKNVRHTERHHDVIDGKFELHGESNINGVHIKLDVRIVIVDGRLHSVHVEIDRR
protease stability score: 1.26

DEEHKEVREHIETSIQALRTGDWELLSKRMDPHVRVIVGDKHLHGREEAHKMLEEWFKRMGIDHFHIKSIEIQGDKTDVEGHMYFNGVSRDTRLYEVWVNGRLKSLTIEMR
protease stability score: 0.626

DEEHKFQHDISIFFMKLIETGDEDTLIDMADPNARSEINGKEVHGMEDAYKWWIDFLRQMGIKHLHVETFHVVNGQTKVHSRVHVGDKEFEVEIRLIIINGRLHEIEIIVRTR
protease stability score: 1.21
